Reference: paper PMC9352680, “A comprehensive thermodynamic model for RNA binding by the Saccharomyces cerevisiae Pumilio protein PUF4”

T1: PUF4 RNA-binding domain (Saccharomyces cerevisiae, UniProt P25339 537-888)
T1 sequence: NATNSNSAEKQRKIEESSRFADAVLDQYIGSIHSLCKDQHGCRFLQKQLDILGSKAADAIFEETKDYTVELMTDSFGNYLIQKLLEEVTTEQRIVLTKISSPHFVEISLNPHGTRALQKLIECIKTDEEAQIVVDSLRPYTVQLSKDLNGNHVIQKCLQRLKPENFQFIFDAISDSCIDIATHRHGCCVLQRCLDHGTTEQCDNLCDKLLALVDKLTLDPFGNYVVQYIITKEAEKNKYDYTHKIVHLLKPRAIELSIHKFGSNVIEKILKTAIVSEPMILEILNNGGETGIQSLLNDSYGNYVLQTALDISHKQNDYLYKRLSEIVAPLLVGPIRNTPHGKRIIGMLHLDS

B1: Ia_S2_P5E.1_K5.1_C5.1_H5.1_A5.1_[A7T]_F5.1_T5.1 (ssRNA)
RNA: UUUGAUUAAUAUGAUAUCGUUCUUUCUUGUAUUUUUAUUCUUUCUCGAUAUCAUAUUAAUCUUU
B2: Ib_S4_P3E.1_K3.1_C3.1_H3.1_A3.1_F3.1_[T7C]_[A8G]_T3.1 (ssRNA)
RNA: UUUGACAACUGAUCGUUCUUUCUUGUAUACGUUCUUUCUCGAUCAGUUGUCUUU
B3: Ib_S4_P3E.1_K3.1_C3.1_H3.1_[T1A]_A3.1_[T5C]_F3.1_T3.1 (ssRNA)
RNA: UUUGACAACUGAUCGUUCUUUCUAGUACAUAUUCUUUCUCGAUCAGUUGUCUUU
B4: Ib_S4_P3E.1_K3.1_C3.1_H3.1_[T3C]_[A4T]_A3.1_F3.1_T3.1 (ssRNA)
RNA: UUUGACAACUGAUCGUUCUUUCUUGCUUAUAUUCUUUCUCGAUCAGUUGUCUUU
B5: Ib_S4_P3E.1_K3.1_C3.1_H3.1_[T1C]_[A4C]_A3.1_F3.1_T3.1 (ssRNA)
RNA: UUUGACAACUGAUCGUUCUUUCUCGUCUAUAUUCUUUCUCGAUCAGUUGUCUUU
B6: Ib_S4_P3E.1_K3.1_C3.1_H3.1_[T1C]_A3.1_[T5A]_F3.1_T3.1 (ssRNA)
RNA: UUUGACAACUGAUCGUUCUUUCUCGUAAAUAUUCUUUCUCGAUCAGUUGUCUUU
B7: Ib_S4_P3E.1_K3.1_C3.1_H3.1_[G2C]_A3.1_F3.1_[T7A]_T3.1 (ssRNA)
RNA: UUUGACAACUGAUCGUUCUUUCUUCUAUAAAUUCUUUCUCGAUCAGUUGUCUUU
B8: Ib_S4_P3E.1_K3.1_C3.1_H3.1_[T1A]_A3.1_F3.1_[T7C]_T3.1 (ssRNA)
RNA: UUUGACAACUGAUCGUUCUUUCUAGUAUACAUUCUUUCUCGAUCAGUUGUCUUU
B9: Ib_S4_P3E.1_K3.1_C3.1_H3.1_[A4G]_A3.1_F3.1_[T7A]_T3.1 (ssRNA)
RNA: UUUGACAACUGAUCGUUCUUUCUUGUGUAAAUUCUUUCUCGAUCAGUUGUCUUU
B10: Ib_S4_P3E.1_K3.1_C3.1_H3.1_[G2C]_A3.1_F3.1_[A8T]_T3.1 (ssRNA)
RNA: UUUGACAACUGAUCGUUCUUUCUUCUAUAUUUUCUUUCUCGAUCAGUUGUCUUU
B11: Ib_S4_P3E.1_K3.1_C3.1_H3.1_[A4C]_A3.1_F3.1_[T7C]_T3.1 (ssRNA)
RNA: UUUGACAACUGAUCGUUCUUUCUUGUCUACAUUCUUUCUCGAUCAGUUGUCUUU
B12: Ic_S4_P3E.1_K3.1_C3.1_H3.1_A3.1_[T5C]_F3.1_[A8C]_T3.1 (ssRNA)
RNA: UUUGACAACUGAUCGUUCUUUCUUGUACAUCUUCUUUCUCGAUCAGUUGUCUUU
B13: Ib_S4_P3E.1_K3.1_C3.1_H3.1_[T1A]_[A4C]_A3.1_F3.1_T3.1 (ssRNA)
RNA: UUUGACAACUGAUCGUUCUUUCUAGUCUAUAUUCUUUCUCGAUCAGUUGUCUUU
B14: Ib_S4_P3E.1_K3.1_C3.1_H3.1_[G2C]_[A4G]_A3.1_F3.1_T3.1 (ssRNA)
RNA: UUUGACAACUGAUCGUUCUUUCUUCUGUAUAUUCUUUCUCGAUCAGUUGUCUUU
B15: Ib_S4_P3E.1_K3.1_C3.1_H3.1_A3.1_[A6T]_F3.1_[T7C]_T3.1 (ssRNA)
RNA: UUUGACAACUGAUCGUUCUUUCUUGUAUUCAUUCUUUCUCGAUCAGUUGUCUUU
B16: Ib_S4_P3E.1_K3.1_C3.1_H3.1_A3.1_[A6T]_F3.1_[A8C]_T3.1 (ssRNA)
RNA: UUUGACAACUGAUCGUUCUUUCUUGUAUUUCUUCUUUCUCGAUCAGUUGUCUUU
B17: Ib_S4_P3E.1_K3.1_C3.1_H3.1_A3.1_[A6T]_F3.1_[A8T]_T3.1 (ssRNA)
RNA: UUUGACAACUGAUCGUUCUUUCUUGUAUUUUUUCUUUCUCGAUCAGUUGUCUUU
B18: Ib_S4_P3E.1_K3.1_C3.1_H3.1_[G2C]_[A4T]_A3.1_F3.1_T3.1 (ssRNA)
RNA: UUUGACAACUGAUCGUUCUUUCUUCUUUAUAUUCUUUCUCGAUCAGUUGUCUUU
B19: Ib_S4_P3E.1_K3.1_C3.1_H3.1_[G2C]_A3.1_F3.1_[T7C]_T3.1 (ssRNA)
RNA: UUUGACAACUGAUCGUUCUUUCUUCUAUACAUUCUUUCUCGAUCAGUUGUCUUU
B20: Ic_S4_P3E.1_K3.1_C3.1_H3.1_A3.1_[A6T]_F3.1_[T7A]_T3.1 (ssRNA)
RNA: UUUGACAACUGAUCGUUCUUUCUUGUAUUAAUUCUUUCUCGAUCAGUUGUCUUU
B21: Ib_S4_P3E.1_K3.1_C3.1_H3.1_[G2A]_A3.1_F3.1_[T7A]_T3.1 (ssRNA)
RNA: UUUGACAACUGAUCGUUCUUUCUUAUAUAAAUUCUUUCUCGAUCAGUUGUCUUU
B22: Ib_S4_P3E.1_K3.1_C3.1_H3.1_[G2T]_[A4G]_A3.1_F3.1_T3.1 (ssRNA)
RNA: UUUGACAACUGAUCGUUCUUUCUUUUGUAUAUUCUUUCUCGAUCAGUUGUCUUU
B23: Ib_S4_P3E.1_K3.1_C3.1_H3.1_A3.1_F3.1_[T7C]_[A8C]_T3.1 (ssRNA)
RNA: UUUGACAACUGAUCGUUCUUUCUUGUAUACCUUCUUUCUCGAUCAGUUGUCUUU
B24: Ib_S4_P3E.1_K3.1_C3.1_H3.1_[T1G]_[A4C]_A3.1_F3.1_T3.1 (ssRNA)
RNA: UUUGACAACUGAUCGUUCUUUCUGGUCUAUAUUCUUUCUCGAUCAGUUGUCUUU
B25: Ib_S4_P3E.1_K3.1_C3.1_H3.1_A3.1_[A6G]_F3.1_[A8G]_T3.1 (ssRNA)
RNA: UUUGACAACUGAUCGUUCUUUCUUGUAUGUGUUCUUUCUCGAUCAGUUGUCUUU
B26: Ic_S4_P3E.1_K3.1_C3.1_H3.1_A3.1_[A6G]_F3.1_[A8T]_T3.1 (ssRNA)
RNA: UUUGACAACUGAUCGUUCUUUCUUGUAUGUUUUCUUUCUCGAUCAGUUGUCUUU
B27: Ib_S4_P3E.1_K3.1_C3.1_H3.1_A3.1_[T5A]_F3.1_[T7A]_T3.1 (ssRNA)
RNA: UUUGACAACUGAUCGUUCUUUCUUGUAAAAAUUCUUUCUCGAUCAGUUGUCUUU
B28: Ib_S4_P3E.1_K3.1_C3.1_H3.1_[T3C]_A3.1_F3.1_[A8T]_T3.1 (ssRNA)
RNA: UUUGACAACUGAUCGUUCUUUCUUGCAUAUUUUCUUUCUCGAUCAGUUGUCUUU
B29: Ib_S4_P3E.1_K3.1_C3.1_H3.1_[T3C]_[A4G]_A3.1_F3.1_T3.1 (ssRNA)
RNA: UUUGACAACUGAUCGUUCUUUCUUGCGUAUAUUCUUUCUCGAUCAGUUGUCUUU
B30: Ic_S4_P3E.1_K3.1_C3.1_H3.1_A3.1_[T5A]_F3.1_[T7C]_T3.1 (ssRNA)
RNA: UUUGACAACUGAUCGUUCUUUCUUGUAAACAUUCUUUCUCGAUCAGUUGUCUUU
B31: Ib_S4_P3E.1_K3.1_C3.1_H3.1_[T1C]_A3.1_F3.1_[A8T]_T3.1 (ssRNA)
RNA: UUUGACAACUGAUCGUUCUUUCUCGUAUAUUUUCUUUCUCGAUCAGUUGUCUUU
B32: Ib_S4_P3E.1_K3.1_C3.1_H3.1_[T3C]_[A4C]_A3.1_F3.1_T3.1 (ssRNA)
RNA: UUUGACAACUGAUCGUUCUUUCUUGCCUAUAUUCUUUCUCGAUCAGUUGUCUUU
B33: Ic_S4_P3E.1_K3.1_C3.1_H3.1_A3.1_[T5A]_F3.1_[A8G]_T3.1 (ssRNA)
RNA: UUUGACAACUGAUCGUUCUUUCUUGUAAAUGUUCUUUCUCGAUCAGUUGUCUUU
B34: Ib_S4_P3E.1_K3.1_C3.1_H3.1_[G2T]_A3.1_F3.1_[A8G]_T3.1 (ssRNA)
RNA: UUUGACAACUGAUCGUUCUUUCUUUUAUAUGUUCUUUCUCGAUCAGUUGUCUUU
B35: Ib_S4_P3E.1_K3.1_C3.1_H3.1_A3.1_[A6G]_F3.1_[T7C]_T3.1 (ssRNA)
RNA: UUUGACAACUGAUCGUUCUUUCUUGUAUGCAUUCUUUCUCGAUCAGUUGUCUUU
B36: Ic_S4_P3E.1_K3.1_C3.1_H3.1_A3.1_[A6C]_F3.1_[A8T]_T3.1 (ssRNA)
RNA: UUUGACAACUGAUCGUUCUUUCUUGUAUCUUUUCUUUCUCGAUCAGUUGUCUUU
B37: Ib_S4_P3E.1_K3.1_C3.1_H3.1_[A4C]_A3.1_F3.1_[A8T]_T3.1 (ssRNA)
RNA: UUUGACAACUGAUCGUUCUUUCUUGUCUAUUUUCUUUCUCGAUCAGUUGUCUUU
B38: Ib_S4_P3E.1_K3.1_C3.1_H3.1_[G2A]_[A4G]_A3.1_F3.1_T3.1 (ssRNA)
RNA: UUUGACAACUGAUCGUUCUUUCUUAUGUAUAUUCUUUCUCGAUCAGUUGUCUUU
B39: Ib_S4_P3E.1_K3.1_C3.1_H3.1_[G2C]_[A4C]_A3.1_F3.1_T3.1 (ssRNA)
RNA: UUUGACAACUGAUCGUUCUUUCUUCUCUAUAUUCUUUCUCGAUCAGUUGUCUUU
B40: Ib_S4_P3E.1_K3.1_C3.1_H3.1_[T1G]_A3.1_F3.1_[A8T]_T3.1 (ssRNA)
RNA: UUUGACAACUGAUCGUUCUUUCUGGUAUAUUUUCUUUCUCGAUCAGUUGUCUUU
B41: Ib_S4_P3E.1_K3.1_C3.1_H3.1_[G2C]_A3.1_F3.1_[A8C]_T3.1 (ssRNA)
RNA: UUUGACAACUGAUCGUUCUUUCUUCUAUAUCUUCUUUCUCGAUCAGUUGUCUUU
B42: Ib_S4_P3E.1_K3.1_C3.1_H3.1_[T1G]_A3.1_[T5C]_F3.1_T3.1 (ssRNA)
RNA: UUUGACAACUGAUCGUUCUUUCUGGUACAUAUUCUUUCUCGAUCAGUUGUCUUU

Biological target: T1, PUF4 RNA-binding domain
Experiment: Mg; RNA-MaP; 20 mM Na-HEPES pH 7.4, 30 mM KOAc, 0.75 mM MgCl2, 0.1% Tween-20, 5% glycerol, 0.1 mg/mL BSA, 2 mM DTT; 25 C; 0.0125-409.6 nM protein
Conditions: tags: N-His6-TEV cleaved; C-SNAP kept, Cy3B-labelled; label: tethered on chip by stalled RNA polymerase

Binder | Kd [nM]
ACAAACAGUAUAUAACAAAC (ssRNA) [Ia_S3_P3E.1_K3.1_C3.1_H3.1_[T1A]_A3.1_F3.1_T3.1] | 2000
B1 | 2.11
ACAAACUAUAUAUUAACAAAC (ssRNA) [Ia_S3_P4E.1_K4.1_C4.1_H4.1_[G2A]_A4.1_F4.1_T4.1] | 33.9
B2 | 60.4
B3 | > 2300
B4 | 2120
B5 | > 2300
B6 | > 2300
B7 | > 2300
B8 | > 2300
B9 | 35.5
B10 | 1640
B11 | > 2300
B12 | 9.55
B13 | > 2300
B14 | 2.45
B15 | 121
B16 | 28.4
B17 | 11.9
B18 | 1800
B19 | 610
B20 | 82
B21 | > 2300

Binder | Kd [nM]
B22 | 3.32
B23 | 28.9
B24 | > 2300
B25 | 38.2
B26 | 25.7
B27 | 262
B28 | 1510
B29 | 1160
B30 | 374
B31 | 645
B32 | > 2300
B33 | 296
B34 | > 2300
B35 | 295
B36 | 13.5
B37 | 289
B38 | 5.75
B39 | > 2300
B40 | > 2300
B41 | > 2300
B42 | 1810
ACAAACAGUAUUAUUAACAAAC (ssRNA) [Ia_S3_P5E.1_K5.1_C5.1_H5.1_[T1A]_A5.1_F5.1_T5.1] | 1980
ACAAACUGUCUUAUUAACAAAC (ssRNA) [Ia_S3_P5E.1_K5.1_C5.1_H5.1_[A4C]_A5.1_F5.1_T5.1] | 365
